From article PMC9404881, “Simultaneous Maturation of Single Chain Antibody Stability and Affinity by CHO Cell Display” (Bioengineering, 2022)
Changes are numbered by the printed parent chain. Names and notes keep the numbering of the source.

How the values were obtained:
His-TNFα-GFP [1] = target: T1, His-TNFα-GFP (Homo sapiens, UniProt P01375, biotin (conjugated for the Octet measurement only)); assay: BLI; ForteBio Octet; biotinylated TNFα-GFP (20 μg/mL) fixed on streptavidin (SA) biosensors; scFv in solution, 250-8000 nM for wild type and 31.25-1000 nM for mutant; association 120 s, dissociation 180 s; KD = Koff/Kon; details: both partners purified
T1 construct: TNFα, antigen of the anti-human TNFα scFv; The names His-TNFα-GFP and GFP-TNFα are both printed, so the side on which GFP stands is not certain; Probably the soluble form of TNFα (surmise); also called GFP-TNFα; source: E. coli containing the PET28a (+)-TNFα-GFP plasmid, purified with a Ni column
T1 sequence (P01375 whole entry): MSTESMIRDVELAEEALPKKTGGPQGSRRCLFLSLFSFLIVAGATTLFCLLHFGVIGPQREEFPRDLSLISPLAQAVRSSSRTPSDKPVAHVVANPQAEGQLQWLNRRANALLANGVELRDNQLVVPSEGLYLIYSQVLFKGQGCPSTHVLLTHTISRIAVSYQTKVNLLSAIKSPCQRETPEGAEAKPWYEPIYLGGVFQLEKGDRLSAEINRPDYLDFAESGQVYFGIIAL

His-TNFα-GFP [2] = target: T1, His-TNFα-GFP; assay: flow cytometry on cells; scFv displayed on CHO cells, labelled with TNFα-GFP and PE-conjugated anti-HA antibody for 1/2 h at 4 °C; with or without 5% BSA (antigen binding much reduced without BSA); details: one partner purified

B1: Anti-human TNFα wild-type scFv (soluble, His-tagged) (scFv, V domains shown)
VH: QLVQSGPELKKPGETVKISCKASGYTFTNYGMNWVKQAPGKGLKWMGWINTYTGEPTYADDFKGRFAFSLETSASTAYLQINNLKNEDSATYFCAGRRSYDYDVAMDYWGQGTSVTIS
VL: DIVLTQSPASLAVSLGQRATISCRASESVDSYGNYFMHWYQQKPGQPPKLLIYRASNLESGIPARFSGSGSGTDFTLTINPVEADDVATYYCQQSNEEPLTFGSGTKLEIK
notes: scFv from Jie Tang (Institute of Biophysics, CAS); Theoretical mass with His tag about 25 kDa; also called αTNFα; anti-TNFα WT scFv; source: 293F cells, transfected, supernatant purified on a nickel column; not shown: His6, C-terminal, kept
His-TNFα-GFP [1]
  Kd: 1550 nM
  koff: 0.00873 s⁻¹
  kon: 5620 M⁻¹ s⁻¹

B2: Anti-TNFα scFv mutant A115V displayed on CHO cells (scFv, V domains shown)
VH: B1 VH with A105V
VL: B1 VL
notes: Most enriched clone of the maturation under normal conditions (37 °C culture, 4 °C labelling); Display construct as m4; not shown: transmembrane peptide (TM), C-terminal, kept
His-TNFα-GFP [2]
  binding result: binds

B3: Anti-TNFα scFv mutant G94R (soluble, His-tagged) (scFv, V domains shown)
VH: B1 VH with G96R
VL: B1 VL
notes: position 94 of the heavy chain in the Chothia scheme, right before heavy chain CDR3; Found by AID mutagenesis and sorting on thermo-resistant CHO cells; The base change is printed as G316A; also called G316A (base); G94R scFv; source: 293F cells, transfected, supernatant purified on a nickel column; not shown: His6, C-terminal, kept
His-TNFα-GFP [1]
  Kd: 9.69 nM
  koff: 0.00159 s⁻¹
  kon: 164000 M⁻¹ s⁻¹
